This test addresses T1, EED, comprising residues 76–441 (TEV-cleaved, used for crystallization) (human, UniProt O75530 76-441).
T1 construct: EED (embryonic ectoderm development), human, residues 76-441, cloned into pGEX-KG; The EED in PDB 5H13 (no EZH2 peptide) was cleaved with thrombin instead of TEV; also called embryonic ectoderm development; TEV-cleaved EED protein; source: E. coli BL21-CodonPlus(DE3)-RIL, purified (Glutathione Sepharose 4B, TEV cleavage, Ni2+-NTA flow-through, Superdex 75); not shown: GST, N-terminal, cleaved
In words: crystal structure; TEV-cleaved EED (76-441) mixed with EZH2 peptide at molar ratio 1:2.5; EED-EBD crystals soaked with EED709, EED666 or EED210 (0.1 M Tris pH 8.0, 16% PEG 8000, 20°C) or co-crystallised with EED162 (0.1 M Bis-Tris pH 6.0, 0.2 M MgCl2, 20% PEG 3350). The conditions noted are these: both partners purified.

T1 sequence (O75530 76-441): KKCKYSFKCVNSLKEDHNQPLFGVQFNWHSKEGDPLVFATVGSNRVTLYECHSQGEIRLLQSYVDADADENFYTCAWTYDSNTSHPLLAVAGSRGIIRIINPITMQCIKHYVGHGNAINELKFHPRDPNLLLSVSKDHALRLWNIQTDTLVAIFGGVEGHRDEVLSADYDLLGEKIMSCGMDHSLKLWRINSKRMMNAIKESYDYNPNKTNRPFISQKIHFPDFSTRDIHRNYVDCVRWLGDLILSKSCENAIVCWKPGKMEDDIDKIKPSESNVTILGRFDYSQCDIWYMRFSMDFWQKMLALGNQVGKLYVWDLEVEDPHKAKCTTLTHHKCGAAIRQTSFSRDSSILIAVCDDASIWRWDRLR

B1: EZH2 peptide (residues 40–68, EBD) (peptide)
peptide: KSMFSSNRQKILERTEILNQEWKQRRIQPV
notes: EZH2 (Enhancer of zeste homolog 2), human; Printed as NH2-...-CO2H (free ends); also called EBD peptide; EZH2 peptide (40–68); source: synthetic peptide (GL Biochem)
Take B1: the binding result was “binds”.

For the origin of these results see article PMC5224880, “Discovery and Molecular Basis of a Diverse Set of Polycomb Repressive Complex 2 Inhibitors Recognition by EED” (PLoS ONE, 2017).
